Measured values reported in US20240425589A1, “CYTOTOXICITY-INDUCING THERAPEUTIC AGENT FOR USE IN TREATMENT OF CANCER” (CHUGAI SEIYAKU KABUSHIKI KAISHA, priority 2021, published 2024).
Changes are numbered by the printed parent chain.

B1: H1610L0581: affinity matured Dual-Fab variant, VH SEQ ID NO 94, VL SEQ ID NO 143 (antibody, V domains shown)
VH: QVQLVESGGGLVQPGRSLRLSCAASGFVFSNVWMHWVRQAPGKGLEWVAQIKDKWNAYAAYYAPSVKGRFTISRDDSKNSIYLQMNSLKTEDTAVYYCHYIHYASASTLLPAEGIDAWGQGTTVTVSS
VL: DIVMTQSPLSLPVTPGEPASISCQPSQEVVHMNRNTYLHWYQQKPGQAPRLLIYKVSNRFPGVPDRFSGSGSGTDFTLKISRVEAEDVGVYYCAQGTSHPFTFGQGTKLEIK
B2: H1610L0939: affinity matured Dual-Fab variant, VH SEQ ID NO 94, VL SEQ ID NO 145 (antibody, V domains shown)
VH: B1 VH
VL: B1 VL with R59V, S98H
B3: H1643L0581: affinity matured Dual-Fab variant, VH SEQ ID NO 95, VL SEQ ID NO 143 (antibody, V domains shown)
VH: B1 VH with V28K, M34F, K54Y, W55Y, I101V, I115V
VL: B1 VL
B4: H1649L0581: affinity matured Dual-Fab variant, VH SEQ ID NO 97, VL SEQ ID NO 143 (antibody, V domains shown)
VH: B1 VH with M34F, W55Y, A60D, G68E, I101V, I115V
VL: B1 VL
B5: H1649L0943: affinity matured Dual-Fab variant, VH SEQ ID NO 97, VL SEQ ID NO 146 (antibody, V domains shown)
VH: B1 VH with M34F, W55Y, A60D, G68E, I101V, I115V
VL: B1 VL with Q27E, R59L, S98H
B6: H1651L0581: affinity matured Dual-Fab variant, VH SEQ ID NO 98, VL SEQ ID NO 143 (antibody, V domains shown)
VH: B1 VH with M34F, W55Y, A60D, K67E, I101V, I115V
VL: B1 VL
B7: H1652L0943: affinity matured Dual-Fab variant, VH SEQ ID NO 99, VL SEQ ID NO 146 (antibody, V domains shown)
VH: B1 VH with M34F, K54Y, W55Y, A60D, K67E, I101V, I115V
VL: B1 VL with Q27E, R59L, S98H
B8: H1673L0581: affinity matured Dual-Fab variant, VH SEQ ID NO 100, VL SEQ ID NO 143 (antibody, V domains shown)
VH: B1 VH with M34F, A60D, G68E
VL: B1 VL
B9: H1673L0943: affinity matured Dual-Fab variant, VH SEQ ID NO 100, VL SEQ ID NO 146 (antibody, V domains shown)
VH: B1 VH with M34F, A60D, G68E
VL: B1 VL with Q27E, R59L, S98H
B10: H2591L0581: affinity matured Dual-Fab variant, VH SEQ ID NO 101, VL SEQ ID NO 143 (antibody, V domains shown)
VH: B1 VH with V28K, M34F, K54Y, W55Y, A60G, A63H, I101V, S105A, I115V
VL: B1 VL
B11: H2594L0581: affinity matured Dual-Fab variant, VH SEQ ID NO 102, VL SEQ ID NO 143 (antibody, V domains shown)
VH: B1 VH with V28K, M34F, K54Y, W55Y, A60G, A63H, I101V, S105A, T108Q, I115V
VL: B1 VL
B12: H183L072: parental Dual-Fab (CD3/CD137), VH SEQ ID NO 90, VL SEQ ID NO 142 (antibody, V domains shown)
VH: B1 VH with V28T, V32A, W55G, I101V, L109V, E113F, I115V
VL: B1 VL with P25A, V29L, H99V
B13: H1550L0918: affinity matured Dual-Fab variant, VH SEQ ID NO 92, VL SEQ ID NO 144 (antibody, V domains shown)
VH: B1 VH with V28K, W55Y, E113F, I115V
VL: B1 VL with R34N, N35V, T36V
B14: H1647L0581: affinity matured Dual-Fab variant, VH SEQ ID NO 96, VL SEQ ID NO 143 (antibody, V domains shown)
VH: B1 VH with V28K, V32T, M34F, K54Y, W55Y, A57D, I101V, I115V
VL: B1 VL
B15: H0868L0581: affinity matured Dual-Fab variant, VH SEQ ID NO 91, VL SEQ ID NO 143 (antibody, V domains shown)
VH: B1 VH with V28K, W55Y, I101V, E113F, I115V
VL: B1 VL
B16: H1571L0581: affinity matured Dual-Fab variant, VH SEQ ID NO 93, VL SEQ ID NO 143 (antibody, V domains shown)
VH: B1 VH with V28K, M34F, W55Y, A60T, I101V, E113F, I115V
VL: B1 VL

Molecular target: T1, recombinant human CD3 (human CD3eg linker) (Homo sapiens, UniProt P07766+P09693)
T1 construct: made in house; host or cells: FreeStyle293F
Assay: Biacore T200 SPR affinity of Dual-Fab antibodies to human CD3
Format: binding
Settings: 25 degrees C, pH 7.4
Excerpt: The gamma and epsilon subunits of the human CD3 complex (human CD3eg linker) were linked by a 29-mer linker and a Flag-tag was fused to the C-terminal end of the gamma subunit (SEQ ID NO: 169). This construct was expressed transiently using FreeStyle293F cell line (Thermo Fisher). Conditioned media expressing human CD3eg linker was concentrated using a column packed with Q HP resins (GE healthcare) and then applied to FLAG-tag affinity chromatography. Fractions containing human CD3eg linker were collected and subsequently subjected to a Superdex 200 gel filtration column (GE healthcare) equilibrated with 1×D-PBS. Fractions containing human CD3eg linker were then pooled and stored at −80 degrees C.
(§1) Binding affinity of Dual-Fab antibodies (Dual-Ig) to human CD3 were assessed at 25 degrees C. using Biacore T200 instrument (GE Healthcare). Anti-human Fc (GE Healthcare) was immobilized onto all flow cells of a CM4 sensor chip using amine coupling kit (GE Healthcare). Antibodies were captured onto the anti-Fc sensor surfaces, then recombinant human CD3 or CD137 was injected over the flow cell. All antibodies and analytes were prepared in ACES pH 7.4 containing 20 mM ACES, 150 mM NaCl, 0.05% Tween 20, and 0.005% NaN3. Sensor surface was regenerated each cycle with 3M MgCl2. Binding affinity were determined by processing and fitting the data to 1:1 binding model using Biacore T200 Evaluation software, version 2.0 (GE Healthcare). CD137 binding affinity assay was conducted in same condition except assay temperature was set at 37 degrees C.

T1 sequence (P07766+P09693 fused): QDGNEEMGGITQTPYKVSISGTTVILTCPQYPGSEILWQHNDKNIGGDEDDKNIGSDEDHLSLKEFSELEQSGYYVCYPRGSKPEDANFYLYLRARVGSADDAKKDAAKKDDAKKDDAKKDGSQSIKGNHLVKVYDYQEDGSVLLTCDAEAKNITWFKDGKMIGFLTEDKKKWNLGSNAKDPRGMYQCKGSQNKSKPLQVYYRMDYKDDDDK

In order of falling “CD3 Koff” value:
1. B7  0.0636 s⁻¹
2. B11  0.0584 s⁻¹
3. B10  0.0535 s⁻¹
4. B5  0.0481 s⁻¹
5. B6  0.0371 s⁻¹
6. B4  0.0336 s⁻¹
7. B3  0.0251 s⁻¹
8. B12  0.012 s⁻¹
9. B13  0.00316 s⁻¹
10. B2  0.00253 s⁻¹
11. B1  0.00142 s⁻¹
12. B9  0.00116 s⁻¹
13. B8  0.00106 s⁻¹

In order of falling “CD3 Kon” value:
1. B10  102000 M⁻¹ s⁻¹
2. B11  98300 M⁻¹ s⁻¹
3. B3  94600 M⁻¹ s⁻¹
4. B8  79600 M⁻¹ s⁻¹
5. B4  75000 M⁻¹ s⁻¹
6. B13  72000 M⁻¹ s⁻¹
7. B6  71800 M⁻¹ s⁻¹
8. B1  68000 M⁻¹ s⁻¹
9. B7  62300 M⁻¹ s⁻¹
10. B5  61000 M⁻¹ s⁻¹
11. B9  55000 M⁻¹ s⁻¹
12. B2  50000 M⁻¹ s⁻¹
13. B12  35400 M⁻¹ s⁻¹

With B7 the Kd was 1.02 µM.

Molecular target: T2, recombinant human CD137 (Homo sapiens, UniProt Q07011)
T2 construct: made in house; host or cells: FreeStyle293F
Assay: Biacore T200 SPR affinity of Dual-Fab antibodies to human CD137
Format: binding
Settings: 37 degrees C, pH 7.4
Excerpt: Human CD137 extracellular domain (ECD) (SEQ ID NO: 179) with hexahistidine (His-tag) and biotin acceptor peptide (BAP) on its C-terminus was expressed transiently using FreeStyle293F cell line (Thermo Fisher). Conditioned media expressing human CD137 ECD was applied to a HisTrap HP column (GE healthcare) and eluted with buffer containing imidazole (Nacalai). Fractions containing human CD137 ECD were collected and subsequently subjected to a Superdex 200 gel filtration column (GE healthcare) equilibrated with 1×D-PBS. Fractions containing human CD137 ECD were then pooled and stored at −80 degrees C.
as §1

T2 sequence (Q07011 with tags, fused parts or gaps): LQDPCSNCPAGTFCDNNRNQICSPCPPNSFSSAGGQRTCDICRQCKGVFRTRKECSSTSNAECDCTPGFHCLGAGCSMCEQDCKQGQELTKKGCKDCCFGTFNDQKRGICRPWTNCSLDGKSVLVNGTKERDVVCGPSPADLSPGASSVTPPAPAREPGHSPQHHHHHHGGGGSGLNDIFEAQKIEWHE

In order of rising “CD137 Koff” value:
1. B5  0.000468 s⁻¹
2. B7  0.00047 s⁻¹
3. B4  0.000553 s⁻¹
4. B6  0.000603 s⁻¹
5. B3  0.000606 s⁻¹
6. B14  0.000647 s⁻¹
7. B9  0.000722 s⁻¹
8. B10  0.000742 s⁻¹
9. B2  0.000801 s⁻¹
10. B8  0.00096 s⁻¹
11. B16  0.00105 s⁻¹
12. B1  0.0011 s⁻¹
13. B15  0.00136 s⁻¹
14. B11  0.00163 s⁻¹
15. B13  0.00579 s⁻¹
16. B12  0.0196 s⁻¹

In order of rising “CD137 Kon” value:
1. B12  3470 M⁻¹ s⁻¹
2. B14  9980 M⁻¹ s⁻¹
3. B1  10700 M⁻¹ s⁻¹
4. B13  10900 M⁻¹ s⁻¹
5. B8  11900 M⁻¹ s⁻¹
6. B16  12100 M⁻¹ s⁻¹
7. B9  12200 M⁻¹ s⁻¹
8. B15  12200 M⁻¹ s⁻¹
9. B3  12300 M⁻¹ s⁻¹
10. B4  12900 M⁻¹ s⁻¹
11. B7  12900 M⁻¹ s⁻¹
12. B2  13000 M⁻¹ s⁻¹
13. B6  14000 M⁻¹ s⁻¹
14. B5  14300 M⁻¹ s⁻¹
15. B10  20400 M⁻¹ s⁻¹
16. B11  20900 M⁻¹ s⁻¹

For B12, the Kd was 5.66 µM.
